# Measured values as given in PMC10130389, “Growth hormone secretagogues modulate inflammation and fibrosis in mdx mouse model of Duchenne muscular dystrophy” (Frontiers in Immunology, 2023).
# No end group written: not given here.
# What was measured:
# [1] = system: H2K-2B4 cells; experiment: CCK-8 cell viability, WT H2K-2B4 cells; assay type: cell-based, murine; details: at 1 mM, proliferation and differentiation conditions, CCK-8, triplicate
# Method: (§1) Wild-type (WT) H2K-2B4 and dystrophic H2K-SF1 cell lines were cultured and used for all the experiments ([48]). Cells were seeded in 96-well cultures (approximately 4–4.5 × 10^3 cells per well) and sixteen hours after seeding were treated with EP80317, JMV2894 (both in the concentration range 100μM to 1mM) or ghrelin (as control in the concentration range 10nM to 100 μM). Cell viability was then evaluated at different time points following the exposure (16-96 h) by using the Cell Counting Kit-8 (CCK-8,96992 Sigma-Aldrich), according to the instruction. The optical density of each well was determined using a microplate reader set to 450 nm (Victor 3V, Perkin Elmer, Waltham, MA, USA). Cell viability was expressed in percentage vs. control properly corrected for blank values.
# [2] = system: H2K-SF1 cells; experiment: CCK-8 cell viability, dystrophic H2K-SF1 cells; assay type: cell-based, murine; details: at 1 mM, proliferation and differentiation conditions, CCK-8, triplicate
# Method: as §1
substance,measurement,setting,value
"ghrelin: 28 amino acid hormone, used as control in the cell viability assay (GSSFLSPEHQRVQQRKESKKPPAKLQPR; ends and bridges not checked; UniProt Q9UBU3 24-51, looked up)",toxic effect on 2B4 cells,[1],no toxic effect
same,toxic effect on SF1 cells,[2],no toxic effect
